Assay: soluble on expression in E. coli; label from the status in PepcDB or PDB records

Sequence	soluble on expression in E. coli
MSLKIDSIIFDLDGTLWNSIEGVCEAWKVVLKRHSNINKIITPKDIKASMGLQIDEIGKLLFPEEDEKMQLQLMNECCDEEKLYLGEHGGKLFAKLEPTLNKLSQKYKLFIVSNCEDGYIQSFFKAHGLNKYFTDFECSGVTGLSKGENNKLIIKRNSLKNPVYVGDTLKDFESAKIANIPFVYARYGFGDVNEYDYVIDSFEEMLTLDEGHHHHHH	soluble
MKTKLMTLQDATGFFRDGMTIMVGGFMGIGTPSRLVEALLESGVRDLTLIANDTAFVDTGIGPLIVNGRVRKVIASHIGTNPETGRRMISGEMDVVLVPQGTLIEQIRCGGAGLGGFLTPTGVGTVVEEGKQTLTLDGKTWLLERPLRADLALIRAHRCDTLGNLTYQLSARNFNPLIALAADITLVEPDELVETGELQPDHIVTPGAVIDHIIVSQESK	soluble
MSEKKAVIGVVTISDRASKGIYEDISGKAIIDYLKDVIITPFEVEYRVIPDERDLIEKTLIELADEKGCSLILTTGGTGPAPRDVTPEATEAVCEKMLPGFGELMRQVSLKQVPTAILSRQTAGIRGSCLIVNLPGKPQSIKVCLDAVMPAIPYCIDLIGGAYIDTDPNKVKAFRPKK	soluble
MGSDKIHHHHHHMVRLNEIKMQDGKIFLITGANSGLGYETSKFLLERGATVIMCCRDLLKGEKAKKELLKFKFSGKIELVELDLSDLINVKKFAESIKNTFDHLDVLINNAGIMAPPKTLSKQGFEIQFAVNHLAHMFLTLELLPMLEEKNNSRVVTVTSGVQYFGKIQWEDLQGNLKYDRWASYAQSKLANVMFGLELDSKLKETNSKTSSLLAHPGFARTNLQPKSVEANQSWQEELAYKLMDPMFQSAKMGALPQITAATLTSASGGEQYGPRFNFRGFPKICRNAPKALNQTSRKKLWDISEKLIKDFDTLSKQSK	not soluble
GMREEKIREALNAHWQASAAGDFDAEHDIYDDDAICDYPQSGERILGRMNLQALRSHHPGKPAGFEVRRIQGEGNLWITEYSISYNGRPAYTVSIMEFRNGKVVHETQYFSDPFEAPGWRSQWVQQIG	soluble
MGSDKIHHHHHHMKILPVISTKGGEGKSTQAANLAGFFADAGLKTLLIDGDYSQPTASSIYALEHEAPFGLFELLMQTTDLNQPESIISRTAIPNLDLIISNDPDDRLPTAMLHAPDGRMRLKNILQHQSFQSYDVIMIDSKGAAGVMVELVVLAATENVVGVIKPILPDVREFMRGTVRLMSRLLALQAYGIQIPDIKILANCVENTSLDRKTLEELGNIVSEKKYLQSESINISILETKIDQLEVYKRGHAFGQPVHRLEYVTDRKSAAAAVTMHSLACELFPHWKDKFDSVLRNQTGAGEVASV	not soluble
MSLANMHQEPDGSWMVEGQTTVRELNRVLKWGLPANGPRTLNGLILEHLESIPEAGTSLLIQGWPVTILQTQDNRVKMARVQPHHKRRRQPRRHEGHHHHHH	soluble
MAVSHSVKERTISENSLIILLQGLQGRVTTVDLRDESVAHGRIDNVDAFMNIRLAKVTYTDRWGHQVKLDDLFVTGRNVRYVHIPDDVNITSTIEQQLQIIHRVRNFGGKGQGRWEFPPKNCK	not soluble
MGSDKIHHHHHHMEANDLLTLGLGLTAPWRVVDQSLDLSKQPSELRLEVEAARGERYPCPACGALCKAHDFAEFSWRHLNFFQHHCLIKARVPRVRCPEHGLKRVNVPWARPGSGFTLLFEQAVMLLAREMPVNAVARYVGVTDKRIWRVVTHYVLKGMGKLDLSRLCGIGLDETATKRGHHYVTIFVDMDRESRPVVFATPGKGKECLKTFAAYLKGRQGNPENVVEVVCDMSPAFLSAAEATFRNAAVTVDWFHVVQIFTKALDEVRRLEAREVILPKAARWAVLKGLETWRIEEQVAALKELEERGLATATAFRVKELLRWVRKADTRQGARWRATRFFEFARELAGDSVLLAPVRKALNTFEDHLPRILRRWDSLLSNARLEGLNGLFQAARSRARGYRNVTTFITMIYLIGAPITQLLEA	not soluble
MGSDKIHHHHHHMSLLTVKDLGQSFIDKTLYEDANFVLNKEDHMGVTGQNGVGKSTLIKILTGEILPDNGQVKWQNKIDVGYLDQYAKLAPGVTIRGFLRTAFDDLFQKEKELNELYTKYAETSDEDLLEKAGKVQTYLEENNFYDIDTEIEQVASGLGLADLGYDHDVSKLSGGQRSKIILGKLLLQNPDVLVLDEPTNYLDVSHIDWLVDYLNNFEGAFIVVSHDYDFLGRITNCIIDIDFGTITRYTGTLKQAMRQKAANRETYLKAYANQQRKIAKTEAYIRKNKAGTRAKSAKSREKQLARMDVLTPPKNNRRAKFEFPYVATASNLLLQTQDLVIGYDQALVKSAFNFSVGGDEKVAITGFNGIGKTTLLKTLLGQLKPIYGSYDLSVTAKLAYFKQDLTWPNNNMTPLQYLQEEFERKKPKELRQALARMGLTAQQAMSPLKELSGGEQEKVKLAKMQFEPANLLFLDEPTNHLDNDTKDALRKAIINFSGGVIIVSHERDFFRGDWIDKTIDIETMN	not soluble
MGSDKIHHHHHHMTSTPGISDSLLSSMNGSGANNNTSAISETQDRFMKLLIAQMKNQDPLNPMDNAEVTSQMAQLSTVTGIEKMNASLSTFISSMQATQALQASSLIGNTVLVEGNSTYLAPAETEGESAAYLGVELPIGADKLTVNIKNGAGNVVKTITVTNQPAGISSLGWNGYGDDGTKLPDGRYTIEATATTGNSSVASTPLSYEQVMSVSTGSDGVKLNLSNLAAITTDQIKQIF	not soluble
MDGPHGTPVLDRIAKLREELPPPAVPGKGQKTDGRWFDGNGAVRDSVSGKDVDSEEAWRLLRESGIPLPRPPVVAHAEMKVAAAMRRLNVRHAVLVITNVPCDERWSCENLLPAVLPVGCSLSVHGPGYQRTFHGRTPKW	not soluble
MGSDKIHHHHHHMLESNPPKSLYRETAGGIGDYCALAGAQRARVAIVGGGFTGLSTALHLAEAGDDVAVLEAQQPGWGASGRNGGQVNPGLKYDPDTIEAMFGPELGPRMIDFSYGAPDFTFGLIKRLSIACDARQNGTIRAAIRPKPQAAVRTTAAQCQRRGMPVSMVDAQAMATRTGTGRYIAGMFDARGGDLHPLKYTIGLAAAARNASARIFGGSEVLSLKREAGRWVLKTANGSVSAEKVLVATNGYTGALWPGLEQSLVPVFSAIAATEPLAPAAAAQILPDRPVLYEAGNITVYYRIDAQNRLLMGGRGPMKPIGDASAIRYLTDYALRLWPALAGVRWTHGWNGRVAITKDHLLHIHEPEDGVLICLGYNGRGVAMASAMGAALAQRLQGRETSPFPMPISPLKPIRFHRFWPLGVKAAILSGRLKDRFGL	not soluble
MAKTLAQGRKPGSGRKPGKGKTLREGRKPGSGRRRRQDTGGKETDGSQQDQESRLISSRDMEAVDALRELTHSPSSHSAHNSSAAPPPHAAAASTSLPPSLDYTHQSF	soluble
MASLAKNLKNVTPNVRRAVVTWDKAERIQRNEEIFKNSESVVHRLPEHYKTRYWETILSDKTPVHYRPPTSRFAHDSFKNVEIELEENPIIGIRTPEGDDGLWGGERVVKGWIESAPYTKKKILPRYWVPKLFFPALKNVVLYSEILDKYIKVTVTERAMRLIDEHFGLDYYILESKEIDLDSKFANSLKREMLLTLTTESYYEENDEKKAYIKEKYADFVIPEREAEWIGLELNEAARKQQDMEDSTAPEPLKYKFEQSLLERLRDGTDEISQELENPEAPMKTESKFGDKMFGKYLNPIGKKLRSATN	not soluble
MSRIMIQGTASSVGKSILVAALCRIFKQDGFSVCPYKSQNMSLNSYITLDGKEMGRAQVLQAYAAGLEPEVYMNPILLKPTTDKSCQVIVKGEVYGVSSAKNYYNMKKEFAPMLKEDFEELEDKFDIVVIEGAGSPAEINLRENDIVNMGLAELVDAPVVLVGDIDKGGVFASLFGTVMLLEENERKRIKGTIINKFRGDVEILKPGLSMLEERINIPCFGVVPYFN	not soluble
MAGRKSSRTAERVPTTQKPERKSAILSPHDELRERLLETAIDMKENIPQRNTRNSSVGSQKSDCSETRKRRSTKEGPAAKRHSGEKHRNGSREDSLEYISDDREVGSSSSQSSRTRGQPLPAMPEEEEVFDKSSSSDNLAESEESHEMVRLEERQDIEEEIEDDFDDEEEDVVNDKEEYEEIESEDEDDYPVQNEGFAVTKRLMNDEHMVTAPTFLSTAKCDGIGSPTKVWSLMVKRDEIPRATRFLLGNHPDMDDEKRRILIDWMMEVCESEKLHRETFHLAVDYVDRYLESSNVECSTDNFQLVGTAALFIAAKYEEIYPPKCIDFAHLTDSAFTCDNIRTMEVLIVKYIGWSLGPITSIQWLSTYLQLLGTGKKNKSDHYEEQNMYVPELLRSEYLEMCKILDFLLFEIDSFTFSYRTIAAAVLFVNYEPTCAVEKATGFMQAQLEKVIEYVEPVCRAFAKQRQLLDDVIPKHESIKSDDSHNIQVYVKRSSMEPIVKSERERIQHLKARRLHPQRLF	not soluble
MNSENSFSSSEHITVLLHEAVNGLALKENGIYIDGTFGRGGHSRFILSQLSSNGRLIAVDRDPRAIAEAHKIQDLRFQIEHNSFSHIPEICDKLNLVGKIDGILLDLGVSSPQLDEAERGFSFMKDGPLDMRMDTTQGLSAEEWLKQVSIEDLTWVLKTFGEERFAKRIATAIVDFNKSAVKNGTEFLSRTSQLAELISQAVPFKDKHKHPATRSFQAIRIFINSELDELESLLNSALDMLAPEGRLSIISFHSLEDRMVKHFMKKQSKGEDIPKGLPLREDQIQRNQKLRIIGKAIQPSDAEIQANPRSRSAILRVAERILEHHHHHH	soluble
MGSDKIHHHHHHMNAAQAGLYVDQLTVTWRNGHTALRDASFSVPRGSIAALVGVNGSGKSTLFKALMGFVRVGHGEIAILGQPVNRALRQNLVAYVPQSEEMDWSFPVLVEDVVMMGRYGHMGWLRRAKPRDREIVDAALARVGMSEFRHRQIGELSGGQKKRVFLARAIAQQGQVILLDEPFTGVDVQTEARIISLLRELRDEGCTMLVSTHNLGSVSEFCDYTVMVKGTVLASGPTETTFTAENLERAFSGVLRHVALTGGEAQVITDDERPFISRRAAGGPR	not soluble
MGSDKIHHHHHHMNDSATQLTSTGSLTLRHLEAVTMDKAPTFTVKRIAFDEHYLPAENTRITTNFANLARGANRQQNLRNTLTMINNRFNALAHWDNPEHDRYRVELDIISVEMNLESAQYGNALPLIEILKTYIVDRKNNTRLEGMVGNNFSSYVRDYDFSVLLLEHNKHRSTFSTPDHFGELHGNLFKCFVNSQTYQEHFSKPPVICLSVSSSRTYLRTENQHPVLGVEYQQDEYSLTDEYFKKMGLTVRYFMPPNSVAPLAFYFAGDLLADYTDLELISTISTMDTFQKIYRPEIYNANSPAGKAYQPSLKNQDYSLTRIVYDREERSRLAIEQGKFAEEQFVKPYQATLAQWSAQYAR	not soluble
MSTYLIGDIHGCLDELLALLAQVNFDPQQDTLWLTGDLVARGPASLDVLRYVRSLGPAVRMVLGNHDLHLLAVYAGISRNKPKDRITPLLDAPDADELINWLRRQPVLQVDDQLKLIMAHAGITPQWDIETAKMCAREVEAVLSSDSYPLFLDAMYGDMPNNWSPELTGLARLRFSTNALTRMRFCFPNGQLDMICKDTPENAPAPLKPWFDLPRLVDPEYSIIFGHWASLEGKGVPEGIYGLDTGCCWGGDLTLLRWDDKRYFTQRAFKAEAEINNNNGFAAGEAVQH	not soluble
MSLERPLCISYIRFSKATQAEGSSLERQLQLSRTYAEEHGLVLDDKHSYQDLGKSAFTSEHVKEGEFGVFLEFVKQGRVPKGSVLLVESLDRLSRESVLTAFKQFQEILDAGIKIVTLSDKMEYTKEGFEANIGNIFISLGIMARANEESLRKSERICAAWRLKRKNLHNIKLTANCPGWLELTPDKKDFILKEDRVEIVKQIFELSLSGLGVKAISTILNKQKIEPFRSKIGWYQTTVRKILSNSAVIGEFQPHVFGSKHSKPVPDGELIKDYFPPIIDTDTFYAVQAKLKNGAHREGHHHHHH	soluble
